Laboratory results: patent US20100254978A1 (UCB, published 2010)
Several values for one entry are separate records, joined by “and”; a condition that tells them apart may be missing. Identical values can stand only once. One block for each binder: values may come before it.

What was measured:
[1] = molecular target: T1, Human OX40 expressed on the surface of activated human CD4+OX40+ T cells (human, UniProt P43489 29-277); test: flow cytometry saturation binding of FITC labelled antibody on activated human CD4+OX40+ T cells; one of 3 donors
T1 construct: whole, on cells; Also used as the target for the functional assays on human PBMC (endogenous OX40); also called cell surface OX40; cell-surface expressed OX40
T1 sequence (looked up): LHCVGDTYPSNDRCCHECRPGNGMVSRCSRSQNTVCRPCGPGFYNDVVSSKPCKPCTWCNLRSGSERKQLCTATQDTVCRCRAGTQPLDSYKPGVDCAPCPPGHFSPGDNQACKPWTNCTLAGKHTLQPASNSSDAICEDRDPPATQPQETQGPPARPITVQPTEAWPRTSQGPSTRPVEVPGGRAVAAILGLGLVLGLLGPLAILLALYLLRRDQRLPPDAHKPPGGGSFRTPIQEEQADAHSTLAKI
Method: Binding of FITC labelled A26Fab′-PEG to activated human CD4⁺OX40⁺ T cells was measured by flow cytometry across a 4-log concentration range.
(§1) PBMC were isolated by separation on a Ficoll gradient and activated with 1 μg/mL PHA-L for 3 days at 37° C., 5% CO₂, 100% humidity. CD4⁺ T cells were isolated by negative selection using magnetic beads (CD4⁺ T cell Isolation Kit II for Human; Miltenyi Biotec). […] The cells were washed prior to analysis by flow cytometry using a FACScalibur (Becton Dickinson). Two titration curves were produced, one with A26Fab′-PEG and a second with gA33 Fab′-PEG as a non-specific binding control. Linear regression analysis was used to subtract non-specific binding and the specific binding curve thus generated was analysed by non-linear regression (Graphpad Prism®) to determine KD.

[2] = molecular target: Cynomolgus OX40 on activated cynomolgus CD4+ T cells (cynomolgus) (UniProt P79185); test: flow cytometry equilibrium binding on activated CD4+ T cells, against human cells as reference
[3] = molecular target: T1, Human OX40 expressed on the surface of …; test: flow cytometry saturation binding on activated human CD4+ T cells; mean, n = 3
Method: as §1

[4] = molecular target: T2, Human OX40 extracellular (185 aa) domain fused to the murine IgG2a Fc (232 aa) (Ancell No 513-020) (human; murine, UniProt P43489 29-214); test: BIAcore 3000 SPR; antibody captured, human OX40-mFc as analyte; average of 4 determinations
T2 construct: extracellular domain; Bought reagent; also called recombinant OX40; human extracellular domain OX40; not shown: murine IgG2a Fc, 232 aa
T2 sequence (looked up): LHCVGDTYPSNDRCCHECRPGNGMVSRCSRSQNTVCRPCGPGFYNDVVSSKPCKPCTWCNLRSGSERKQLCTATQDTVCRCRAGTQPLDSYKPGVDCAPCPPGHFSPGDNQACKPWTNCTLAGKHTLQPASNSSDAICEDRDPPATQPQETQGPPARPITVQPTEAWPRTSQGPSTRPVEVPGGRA
Method: (§2) BIA (Biamolecular Interaction Analysis) was performed using a BIAcore 3000 (BIAcore AB). Affinipure F(ab′)₂ Fragment goat anti-human IgG, F(ab′)₂ fragment specific (Jackson ImmunoResearch) was immobilised on a CM5 Sensor Chip via amine coupling chemistry to a capture level of ≈4000 response units (RUs). HBS-EP buffer (10 mM HEPES pH 7.4, 0.15 M NaCl, 3 mM EDTA, 0.005% Surfactant P20, BIAcore AB) was used as the running buffer with a flow rate of 10 μl/min. A 10 μl injection of Fab′ at 0.5 μg/mL or Fab′-PEG at 50 μg/mL was used for capture by the immobilised anti-human IgG-F(ab′)₂. Human OX40 was titrated over the captured antibody at various concentrations (25 nM to 0.78 nM) at a flow rate of 30 μL/min. The surface was regenerated by a 10 μL injection of 40 mM HCl, followed by a 5 μL injection of 5 mM NaOH at a flowrate of 10 μL/min.
(§3) Background subtraction binding curves were analysed using the BlAevaluation software (version 3.2) following standard procedures. Kinetic parameters were determined from the fitting algorithm.

[5] = molecular target: T3, Rhesus OX40 on activated rhesus CD4+ T cells (rhesus, UniProt P16003 26-458); test: flow cytometry equilibrium binding on activated CD4+ T cells, against human cells as reference
[6] = molecular target: Cynomolgus OX40 on activated cynomolgus CD4+ T cells (cynomolgus) (UniProt P79185); test: flow cytometry saturation binding on activated cynomolgus CD4+ T cells; n = 3
[7] = molecular target: T3, Rhesus OX40 on activated rhesus CD4+ T …; test: flow cytometry saturation binding on activated rhesus CD4+ T cells; n = 1
[8] = molecular target: T1, Human OX40 expressed on the surface of …; test: cell-based or functional assay
[9] = molecular target: T2, Human OX40 extracellular (185 aa) …; test: BIAcore 3000 SPR; antibody captured by immobilised anti-human F(ab′)2, human OX40-mFc titrated as analyte
Method: as §2, §3

[10] = molecular target: T1, Human OX40 expressed on the surface of …; test: flow cytometry ligand blocking assay on activated human CD4+OX40+ T cells; competitor biotinylated OX40L (CD252 muCD8) at 2 µg/ml
Method: The capacity of A26Fab′-PEG to block the interaction between cell-surface expressed OX40 and recombinant OX40L was measured using a flow cytometry-based ligand blocking assay. Briefly, activated human CD4⁺OX40⁺ T cells were pre-incubated with a titration of A26Fab′-PEG. Recombinant OX40L was subsequently added to the cells and allowed to bind in the presence of A26 Fab′-PEG. The proportion of OX40L bound was then detected by flow cytometry using a labelled secondary reagent.
Methods: Inhibition of OX40L binding to human activated CD4⁺OX40⁺ T Cells by A26Fab′-PEG. PBMC were isolated by separation on a Ficoll gradient and activated with 1 μg/mL PHA-L for 3 days at 37° C., 5% CO₂, 100% humidity. 2.5×10⁵ cells were incubated in the presence of antibody (final concentration range 20 μg/mL-0.0003 μg/mL (229 nM-0.0035 nM)) for 10 minutes on ice. OX40L (biotinylated CD252 muCD8, Ancell) was added at a final concentration of 2 μg/ml and incubated for a further 30 minutes on ice. Cells were washed and OX40L binding detected by incubation with PE-labelled streptavadin (Jackson Immunoresearch) prior to analysis by flow cytometry using a FACScalibur (Becton Dickinson). gA33 Fab′-PEG was used as a non-specific control. The inhibition curve was analysed by non-linear regression (Graphpad Prism®) to determine the IC₅₀. The data shown is from one representative donor of two.

[11] = molecular target: T1, Human OX40 expressed on the surface of …; test: cell-based or functional assay; remark: listed apart in the source
[12] = molecular target: T2, Human OX40 extracellular (185 aa) …; test: BIAcore 3000 SPR; antibody captured, human OX40-mFc as analyte; average of 5 determinations
Method: as §2, §3

T3 sequence (P16003 26-458): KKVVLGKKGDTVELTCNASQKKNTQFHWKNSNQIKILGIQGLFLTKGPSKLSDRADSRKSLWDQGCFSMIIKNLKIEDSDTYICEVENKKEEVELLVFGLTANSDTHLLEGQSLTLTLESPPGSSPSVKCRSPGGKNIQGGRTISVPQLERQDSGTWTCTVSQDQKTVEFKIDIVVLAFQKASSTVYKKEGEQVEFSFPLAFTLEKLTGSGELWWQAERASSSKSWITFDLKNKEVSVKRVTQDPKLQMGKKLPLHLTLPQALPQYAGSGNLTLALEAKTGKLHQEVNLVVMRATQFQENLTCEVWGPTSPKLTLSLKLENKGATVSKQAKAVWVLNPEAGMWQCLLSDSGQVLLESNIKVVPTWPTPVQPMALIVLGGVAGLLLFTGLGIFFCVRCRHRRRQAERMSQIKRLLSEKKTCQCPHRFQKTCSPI

Kd [1]: 1.19 nM and 1.07 nM and 1.05 nM | fold drop off in affinity as compared to human [2]: < 2 fold | Kd [3]: 1.11 nM | Kd [4]: 0.0313 nM | koff [4]: 1.3e-05 s⁻¹ | kon [4]: 476000 M⁻¹ s⁻¹ | fold drop off in affinity as compared to human [5]: < 2 fold | Kd [6]: 1.86 nM | Kd [7]: 1.2 nM | House Dust Mite - Inhibition of IL-13 production (n = 3), Mean IC50 (nM) [8]: 1.23 nM | House Dust Mite - Inhibition of IL-13 production (n = 3), Mean IC50 (µg/ml) [8]: 0.107 µg/mL | Mixed Lymphocyte Reaction - Inhibition of Proliferation (n = 10), Mean IC50 (nM) [8]: 2.15 nM | Mixed Lymphocyte Reaction - Inhibition of Proliferation (n = 10), Mean IC50 (µg/ml) [8]: 0.188 µg/mL | Kd [9]: 0.0137 to 0.0503 nM | IC50 [10]: 4.1 nM
B1: A26Fab′-PEG (PEGylated A26 Fab′ fragment) (Fab, V domains shown)
VH: EVQLVESGGGLVQPGGSLRLSCAASGFTFTNYGIHWIRQAPGKGLEWVASISPSGGLTYYRDSVKGRFTISRDDAKNSPYLQMNSLRAEDTAVYYCATGGEGIFDYWGQGTLVTVSS
VL: DIQMTQSPSSLSASVGDRVTITCRATQSIYNALAWYQQKPGKAPKLLIYNANTLHTGVPSRFSASGSGTDSTLTISSLQPEDFATYYCQQYYDYPLTFGGGTKVEIKR
modifications: Cys 226 (linear numbering of SEQ ID NO:15): lysyl-maleimide group, each amino group of the lysyl residue linked to a methoxypoly(ethyleneglycol) of about 20,000 Da (total PEG about 40,000 Da)
notes: also called A26Fab′-PEGylated
Tetanus Toxoid - Inhibition of Proliferation (n = 2), Mean IC50 (nM) [8]: 0.845 nM | Tetanus Toxoid - Inhibition of Proliferation (n = 2), Mean IC50 (µg/ml) [8]: 0.0733 µg/mL | IC50 for inhibition of proliferation, Tetanus Toxoid response, donor 1 [11]: 0.58 nM and 0.051 µg/mL | IC50 for inhibition of proliferation, Tetanus Toxoid response, donor 2 [11]: 1.11 nM and 0.097 µg/mL

Kd [12]: 0.0296 nM | koff [12]: 1.29e-05 s⁻¹ | kon [12]: 486000 M⁻¹ s⁻¹ | Kd [9]: 0.019 to 0.0454 nM
B2: A26 (humanised CA044-00026, graft gL8gH2) Fab′ fragment, unPEGylated (Fab, V domains shown)
VH: EVQLVESGGGLVQPGGSLRLSCAASGFTFTNYGIHWIRQAPGKGLEWVASISPSGGLTYYRDSVKGRFTISRDDAKNSPYLQMNSLRAEDTAVYYCATGGEGIFDYWGQGTLVTVSS
VL: DIQMTQSPSSLSASVGDRVTITCRATQSIYNALAWYQQKPGKAPKLLIYNANTLHTGVPSRFSASGSGTDSTLTISSLQPEDFATYYCQQYYDYPLTFGGGTKVEIKR
notes: Produced in E. coli; the OmpA signal peptide is cleaved off; also called unPEGylated humanised Fab fragment A26
